# Assay results reported in patent US4978608.
# Like-named read-outs stand apart in the source and are kept apart here.
# Experiments:
# [1] = system: single-stranded DNA binding protein (SSB, BP), immobilized (Escherichia coli); settings: BP 0.2 mg/ml on Immobilon membrane; 10-1000 pg DNA in 10 mg/ml BSA; 80% captured with BP at 1 mg/ml
# [2] = system: single-stranded DNA binding protein (SSB, BP), immobilized (Escherichia coli); settings: BP 50 ug/ml adsorbed on nitrocellulose, BSA blocked; sample in 10 mg/ml BSA
substance,measurement,setting,value
32P-labeled single-stranded DNA,binding signal,[1],70 % captured
same,binding signal,[2],36 % captured
